In FireProtDB (doi:10.1021/bi960863y):

Details: Escherichia coli (strain K12), pH 7, Urea, CD, Potassium phosphate 10 mM, reversible: yes (>95%)

Phosphocarrier protein HPr wild type, P0AA04
denaturant m value (0 °C): 1.29 kcal/mol/M | denaturant midpoint (higher = more stable) (0 °C): 4 M | unfolding free energy (0 °C): 4.63 kcal/mol | denaturant m value (5 °C): 1.18 kcal/mol/M | denaturant midpoint (higher = more stable) (5 °C): 4.38 M | unfolding free energy (5 °C): 5.08 kcal/mol | denaturant m value (10 °C): 1.36 kcal/mol/M | denaturant midpoint (higher = more stable) (10 °C): 4.58 M | unfolding free energy (10 °C): 5.31 kcal/mol | denaturant m value (25 °C): 1.19 kcal/mol/M | denaturant midpoint (higher = more stable) (25 °C): 4.58 M | unfolding free energy (25 °C): 5.31 kcal/mol | denaturant m value (30 °C): 1.14 kcal/mol/M | denaturant midpoint (higher = more stable) (30 °C): 4.32 M | unfolding free energy (30 °C): 5 kcal/mol | denaturant m value (35 °C): 1.01 kcal/mol/M | denaturant midpoint (higher = more stable) (35 °C): 4.04 M | unfolding free energy (35 °C): 4.68 kcal/mol | denaturant m value (40 °C): 1.06 kcal/mol/M | denaturant midpoint (higher = more stable) (40 °C): 3.58 M | unfolding free energy (40 °C): 4.14 kcal/mol | denaturant m value (45 °C): 1.01 kcal/mol/M | denaturant midpoint (higher = more stable) (45 °C): 2.9 M | unfolding free energy (45 °C): 3.37 kcal/mol | denaturant m value (50 °C): 1.11 kcal/mol/M | denaturant midpoint (higher = more stable) (50 °C): 2.09 M | unfolding free energy (50 °C): 2.42 kcal/mol
